Test results taken from the supplement of paper PMC10567573.

B1: ZNF263 (parent)
chain: FAHSSNLLRHQRIHTGERPYKCPE
B2: SPATS1 (parent)
chain: YPEQSKGFHKAGSMLPPVNFSIVP

Variants of: B1
Assay: protein stability index of a GFP-peptide fusion (GPS, HEK-293T) (PSI 1-6); higher = more stable
Details: c terminus: a fixed tail appended
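Further: lentivirally expressed fusions sorted by FACS into six bins by GFP to DsRed ratio, PSI derived from sequencing read proportions per bin multiplied by bin number.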

Row | Variant | protein stability index
1 | FAHLSNLLRHQRIHTGERPYKCPE | 2.48
2 | FAHESNLLRHQRIHTGERPYKCPE | 3.05
3 | FAHGSNLLRHQRIHTGERPYKCPE | 2.45
4 | FAHASNLLRHQRIHTGERPYKCPE | 2.15
5 | FAHKSNLLRHQRIHTGERPYKCPE | 2.28
6 | FAHHSNLLRHQRIHTGERPYKCPE | 1.91
7 | FAHCSNLLRHQRIHTGERPYKCPE | 2.11
8 | FAHMSNLLRHQRIHTGERPYKCPE | 1.86
9 | FAHFSNLLRHQRIHTGERPYKCPE | 2.55
10 | FAHDSNLLRHQRIHTGERPYKCPE | 2.94
11 | FAHISNLLRHQRIHTGERPYKCPE | 2.09
12 | FYHSSNLLRHQRIHTGERPYKCPE | 2.55
13 | FRHSSNLLRHQRIHTGERPYKCPE | 2.82
14 | FDHSSNLLRHQRIHTGERPYKCPE | 3.41
15 | FQHSSNLLRHQRIHTGERPYKCPE | 2.73
16 | FEHSSNLLRHQRIHTGERPYKCPE | 3.69
17 | FPHSSNLLRHQRIHTGERPYKCPE | 2.67
18 | FHHSSNLLRHQRIHTGERPYKCPE | 1.82
19 | FNHSSNLLRHQRIHTGERPYKCPE | 3.34
20 | FTHSSNLLRHQRIHTGERPYKCPE | 2.43
21 | FCHSSNLLRHQRIHTGERPYKCPE | 2.62
22 | FMHSSNLLRHQRIHTGERPYKCPE | 2.83
23 | FSHSSNLLRHQRIHTGERPYKCPE | 3.19

Row | Variant | protein stability index
24 | FGHSSNLLRHQRIHTGERPYKCPE | 3.17
25 | FVHSSNLLRHQRIHTGERPYKCPE | 3.61
26 | FLHSSNLLRHQRIHTGERPYKCPE | 2.57
27 | FFHSSNLLRHQRIHTGERPYKCPE | 2.17
28 | FIHSSNLLRHQRIHTGERPYKCPE | 1.89
29 | FKHSSNLLRHQRIHTGERPYKCPE | 3.08
30 | FWHSSNLLRHQRIHTGERPYKCPE | 2.18
31 | LAHSSNLLRHQRIHTGERPYKCPE | 2.67
32 | MAHSSNLLRHQRIHTGERPYKCPE | 3.9
33 | KAHSSNLLRHQRIHTGERPYKCPE | 3.54
34 | RAHSSNLLRHQRIHTGERPYKCPE | 3.46
35 | IAHSSNLLRHQRIHTGERPYKCPE | 3.77
36 | VAHSSNLLRHQRIHTGERPYKCPE | 3.01
37 | HAHSSNLLRHQRIHTGERPYKCPE | 4.22
38 | NAHSSNLLRHQRIHTGERPYKCPE | 3.9
39 | DAHSSNLLRHQRIHTGERPYKCPE | 3.9
40 | WAHSSNLLRHQRIHTGERPYKCPE | 3.29
41 | YAHSSNLLRHQRIHTGERPYKCPE | 2.51
42 | EAHSSNLLRHQRIHTGERPYKCPE | 3.92
43 | TAHSSNLLRHQRIHTGERPYKCPE | 3.67
44 | QAHSSNLLRHQRIHTGERPYKCPE | 4.13
45 | SAHSSNLLRHQRIHTGERPYKCPE | 3.34
46 | CAHSSNLLRHQRIHTGERPYKCPE | 2.36

Row | Variant | protein stability index
47 | AAHSSNLLRHQRIHTGERPYKCPE | 3.8
48 | GAHSSNLLRHQRIHTGERPYKCPE | 4.33
49 | PAHSSNLLRHQRIHTGERPYKCPE | 3.95
50 | FALSSNLLRHQRIHTGERPYKCPE | 2.61
51 | FASSSNLLRHQRIHTGERPYKCPE | 2.22
52 | FAYSSNLLRHQRIHTGERPYKCPE | 1.96
53 | FARSSNLLRHQRIHTGERPYKCPE | 2.04
54 | FAKSSNLLRHQRIHTGERPYKCPE | 1.86
55 | FAVSSNLLRHQRIHTGERPYKCPE | 1.86
56 | FACSSNLLRHQRIHTGERPYKCPE | 2.07
57 | FAESSNLLRHQRIHTGERPYKCPE | 1.98
58 | FAQSSNLLRHQRIHTGERPYKCPE | 2.03
59 | FAASSNLLRHQRIHTGERPYKCPE | 2.15
60 | FAFSSNLLRHQRIHTGERPYKCPE | 1.89
61 | FAGSSNLLRHQRIHTGERPYKCPE | 2.12
62 | FAPSSNLLRHQRIHTGERPYKCPE | 2.5
63 | FADSSNLLRHQRIHTGERPYKCPE | 1.94
64 | FAMSSNLLRHQRIHTGERPYKCPE | 2.41
65 | FAISSNLLRHQRIHTGERPYKCPE | 2.34
66 | FAWSSNLLRHQRIHTGERPYKCPE | 1.25
67 | FATSSNLLRHQRIHTGERPYKCPE | 2.06
68 | FANSSNLLRHQRIHTGERPYKCPE | 2.48

Variants of: B2
Assay: as above
Details: c terminus: a fixed tail appended

Row | Variant | protein stability index
69 | YPEQSKGFHKAGSMLPPVNFSINP | 2.35
70 | YPEQSKGFHKAGSMLPPVNFSIQP | 2.26
71 | YPEQSKGFHKAGSMLPPVNFSISP | 1.97
72 | YPEQSKGFHKAGSMLPPVNFSITP | 1.74
73 | YPEQSKGFHKAGSMLPPVNFSIWP | 1.87
74 | YPEQSKGFHKAGSMLPPVNFSIRP | 1.9
75 | YPEQSKGFHKAGSMLPPVNFSIYP | 1.75
76 | YPEQSKGFHKAGSMLPPVNFSIVR | 1.82
77 | YPEQSKGFHKAGSMLPPVNFSIVD | 2.43
78 | YPEQSKGFHKAGSMLPPVNFSIVL | 3.85
79 | YPEQSKGFHKAGSMLPPVNFSIVY | 2.08
80 | YPEQSKGFHKAGSMLPPVNFSIVV | 1.46
81 | YPEQSKGFHKAGSMLPPVNFSIVI | 3.47
82 | YPEQSKGFHKAGSMLPPVNFSIVS | 1.94
83 | YPEQSKGFHKAGSMLPPVNFSIVK | 2.08
84 | YPEQSKGFHKAGSMLPPVNFSIVE | 2.74
85 | YPEQSKGFHKAGSMLPPVNFSIVG | 2.37
86 | YPEQSKGFHKAGSMLPPVNFSIVH | 1.53
87 | YPEQSKGFHKAGSMLPPVNFSIVQ | 1.75
88 | YPEQSKGFHKAGSMLPPVNFSIVW | 3.28
89 | YPEQSKGFHKAGSMLPPVNFSIVC | 1.65
90 | YPEQSKGFHKAGSMLPPVNFSIVA | 1.66
91 | YPEQSKGFHKAGSMLPPVNFSIVM | 2.5
92 | YPEQSKGFHKAGSMLPPVNFSIVF | 1.83
93 | YPEQSKGFHKAGSMLPPVNFSIVN | 1.84
94 | YPEQSKGFHKAGSMLPPVNFSIVT | 3.33
